This passage reports Kd results from patent publication US20250332264A1, “GhR-BINDING PEPTIDE AND COMPOSITION COMPRISING SAME” (priority 2021, published 2025).

Starred links: 1 amine or outer side, 2 acyl side, 3 side chain; linkers in the order of their positions; H or OH if unused. Positions of bridges follow the written chain, without caps; N, C: chain ends. Non-standard residues stand in square brackets, D forms with d. Groups on a side chain read outwards from the residue. *: point of attachment. KCOpipzaa = N6-(4-(carboxymethyl)piperazine-1-carbonyl)-L-lysine, O=C(NCCCC[C@H](N[*:1])C(=O)[*:2])N1CCN(CC(=O)[*:3])CC1; A4pipaa = 4-amino-1-(carboxymethyl)piperidine-4-carboxylic acid, O=C(C1(N[*:1])CCN(CC(=O)[*:3])CC1)[*:2]; Trp(1-CH2CO) = O=C([C@H](Cc1cn(CC(=O)[*:3])c2ccccc12)N[*:1])[*:2]; Trp(5-OMe) = COc1ccc2[nH]cc(C[C@H](N)C(=O)O)c2c1; Butanoyl(4-(4-I-phenyl)) = O=C(CCCc1ccc(I)cc1)*; Trp(5-OH) = N[C@@H](Cc1c[nH]c2ccc(O)cc12)C(=O)O; Phe(4-COOH) = N[C@@H](Cc1ccc(C(=O)O)cc1)C(=O)O; C16 diacid = O=C(O)CCCCCCCCCCCCCCC(=O)*; NMeK = CN[C@@H](CCCCN)C(=O)O; Aib = CC(C)(N)C(=O)O; Sar = CNCC(=O)O

Broadly, the Kd is the concentration at which binding is half-saturated.

The chains are these.
T1: Recombinant human GhR-Fc protein (R&D Systems) (human, UniProt P10912 19-264, limits assumed)
T1 construct: Bought from R&D Systems; Amine-coupled to a CM5 chip in the SPR assay; also called hGhR; recombinant human GhR protein fused to Fc portion of human IgG; not shown: Fc portion of human IgG
T1 sequence (looked up): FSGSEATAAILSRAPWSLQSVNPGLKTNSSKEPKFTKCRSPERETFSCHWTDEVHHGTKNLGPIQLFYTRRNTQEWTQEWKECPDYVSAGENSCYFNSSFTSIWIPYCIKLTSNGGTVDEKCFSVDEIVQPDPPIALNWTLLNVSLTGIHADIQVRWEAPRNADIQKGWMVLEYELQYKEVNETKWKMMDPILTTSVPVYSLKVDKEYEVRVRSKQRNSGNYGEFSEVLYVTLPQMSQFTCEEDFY

B1: GhR_PD_216 (peptide)
peptide: {CH2CO}-Y[NMeK]VVSN[Trp(1-CH2CO)][Phe(4-COOH)]K[Trp(5-OH)][Aib]VCK([Glu-Glu-Butanoyl(4-(4-I-phenyl))])-NH2
modifications: thioether N-13; lactam 2-7
notes: also called Compound No. 26
B2: GhR_PD_141 (peptide)
peptide: {CH2CO}-Y[NMeK]VVSN[Trp(1-CH2CO)]YK[Trp(5-OH)][Aib]VCG-NH2
modifications: thioether N-13; lactam 2-7 via Sar
notes: also called Compound No. 3
B3: GhR_PD_234 (peptide)
peptide: {CH2CO}-Y[NMeK]VVSN[Trp(1-CH2CO)]Y[KCOpipzaa][Trp(5-OH)][Aib]VCK([Glu-Glu-C16 diacid])-NH2
modifications: thioether N-13; lactam 2-7
notes: also called Compound No. 27
B4: GhR_PD_142 (peptide)
peptide: {CH2CO}-Y[NMeK]VVSN[Trp(1-CH2CO)]YK[Trp(5-OH)][Aib]VCG-NH2
modifications: thioether N-13; lactam 2-7 via P
notes: also called Compound No. 4
B5: GhR_PD_205 (peptide)
peptide: {CH2CO}-YKVVSN[Trp(5-OMe)]YK[Trp(5-OH)][A4pipaa]VC-NH2
modifications: thioether N-13; not fully specified (residue 2); also: albumin binder E-4IPhpCO, attachment site not given here
notes: No linker; also called Compound No. 45
B6: GhR_PD_232 (peptide)
peptide: {CH2CO}-Y[NMeK]VVSN[Trp(1-CH2CO)][Phe(4-COOH)]K[Trp(5-OH)][Aib]VCK([Glu-Glu-C16 diacid])-NH2
modifications: thioether N-13; lactam 2-7
notes: also called Compound No. 24

For the experiment, the target named is T1, Recombinant human GhR-Fc protein (R&D …). As to the kind of experiment: SPR, Biacore T200, single-cycle kinetics, GhR-Fc immobilised on CM5. The method, then: SPR assay was performed using Biacore T200 (cytiva: Former GE Healthcare). After the equilibration of Series S Sensor Chip CM5 (produced by cytiva: Former GE Healthcare) with Running Buffer (HBS-EP with 1% (v/v) DMSO), an EDC/NHS mixture was injected at a flow rate of 10 μL/min for 7 minutes to thereby activate the functional groups on sensor chip. Recombinant human GhR-Fc protein (R&D Systems) in 10 mM Acetate (pH4.0) was injected immobilized to at a flow rate of 5 μL/min. It took 7 minutes to immobilize the GhR on the substrate surfaces of the sensor chip. Then Ethanolamine was injected at a flow rate of 10 μL/min for 7 minutes. 1M Ethanolamine (aq.) was injected at a flow rate of 10 μL/min for 420 seconds for capping. 10 mM Peptides in DMSO were diluted to obtain 10 uM with Running Buffer, and prepared 100 nM, 50 nM, 25 nM, 10 nM, 5 nM of each peptide solutions (Peptide Samples).
Using these Peptide Samples, kinetics of peptides against human GhR-Fc protein were measured. The method adopted for sample measurement was a single-cycle kinetics method. The analysis was conducted using the evaluation software provided with Biacore T200. A DMSO correction curve obtained by solvent correction measurements was applied for the analysis. Kinetics fitting was done on the difference data obtained by subtracting the baseline data from sample measurement data. KD values were calculated based on the association rate constant (ka) and dissociation rate constant (kd).
For orientation: In SPR one partner is held on a chip, and binding of the other changes the refractive index at the surface.
For B1, the Kd is 1.59 nM.
The same measure for B2: 1.71 nM; for B3: 1.79 nM.
To B4 belongs 1.07 nM; to B5, 3.36 nM; to B6, 2.59 nM.
